Patent US20240024426A1, “HYPOTENSIVE PHARMACEUTICAL COMPOSITION COMPRISING TRIPLE ACTIVATOR HAVING ACTIVITY FOR ALL OF GLUCAGON, GLP-1, AND GIP RECEPTORS” (HANMI PHARM. CO., LTD., priority 2020, published 2024)
Bridges are numbered along the chain shown (N, C = ends). Where no end group is shown, it is not given here. [ ]: non-standard residue; d: D form. The star is where a group is joined. Acetyl(2-(4-imidazolyl)) = O=C(Cc1c[nH]cn1)*; Aib = CC(C)(N)C(=O)O

T1: human GIP receptor (human, UniProt P48546 22-466)
T1 sequence (looked up): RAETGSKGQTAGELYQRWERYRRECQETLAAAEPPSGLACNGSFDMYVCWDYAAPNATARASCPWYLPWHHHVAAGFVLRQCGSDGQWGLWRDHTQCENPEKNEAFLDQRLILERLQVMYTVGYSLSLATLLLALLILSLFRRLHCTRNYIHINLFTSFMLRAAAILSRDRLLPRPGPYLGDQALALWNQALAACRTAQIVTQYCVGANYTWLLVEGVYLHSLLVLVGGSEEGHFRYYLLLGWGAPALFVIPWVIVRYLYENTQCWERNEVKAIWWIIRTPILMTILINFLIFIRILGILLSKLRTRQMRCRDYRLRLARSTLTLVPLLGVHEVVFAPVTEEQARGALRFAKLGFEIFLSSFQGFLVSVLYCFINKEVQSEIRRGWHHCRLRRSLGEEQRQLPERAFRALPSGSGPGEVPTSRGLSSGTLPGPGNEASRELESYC


What was measured:
Test in all cases: cell-based or functional assay
human GCG receptor = human GCG receptor (human, UniProt P47871 26-477)
human GLP-1 receptor = human GLP-1 receptor (human, UniProt P43220 24-463)
human GIP receptor = target: T1, human GIP receptor

human GCG receptor, sequence (P47871 26-477): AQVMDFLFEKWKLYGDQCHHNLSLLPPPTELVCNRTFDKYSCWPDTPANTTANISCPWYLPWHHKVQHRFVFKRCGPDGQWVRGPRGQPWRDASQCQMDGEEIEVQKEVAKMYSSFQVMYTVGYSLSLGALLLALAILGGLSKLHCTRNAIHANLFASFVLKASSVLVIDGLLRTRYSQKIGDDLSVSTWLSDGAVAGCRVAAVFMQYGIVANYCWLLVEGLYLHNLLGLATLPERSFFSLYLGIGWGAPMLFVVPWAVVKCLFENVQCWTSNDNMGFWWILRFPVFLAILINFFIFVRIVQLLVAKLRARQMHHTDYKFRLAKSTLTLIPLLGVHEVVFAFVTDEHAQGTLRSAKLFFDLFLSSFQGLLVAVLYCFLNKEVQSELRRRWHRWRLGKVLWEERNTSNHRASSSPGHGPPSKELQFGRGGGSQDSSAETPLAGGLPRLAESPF

Row | Binder | In vitro activity compared with native peptide (%) vs. Glucagon (human GCG receptor) | In vitro activity compared with native peptide (%) vs. GLP-1 (human GLP-1 receptor) | In vitro activity compared with native peptide (%) vs. GIP (human GIP receptor)
1 | {Acetyl(2-(4-imidazolyl))}-[Aib]EGTFTSDYSIAMDEIHQKDFVNWLLAQC (bridge 15-19) [Triple agonist of SEQ ID NO: 83] | 1.3% | 47.3% | 0.4%
2 | [Acetyl(2-(4-imidazolyl))][Aib]QGTFTSDYSIAMDEIHQKDFVNWLLAQKC (bridge 16-20) [Triple agonist of SEQ ID NO: 92] | < 0.1% | 0.8% | 0.4%
3 | {Acetyl(2-(4-imidazolyl))}-[Aib]QGTFTSDYSKYLDEKRQKEFVQWLLDTKC (bridge 15-19) [Triple agonist of SEQ ID NO: 89] | 0.7% | 7.1% | < 0.1%
4 | {Acetyl(2-(4-imidazolyl))}-[Aib]EGTFTSDYSIAMDEIHQKDFVNWLLAQKC (bridge 15-19) [Triple agonist of SEQ ID NO: 90] | < 0.1% | 7.4% | < 0.1%
5 | {Acetyl(2-(4-imidazolyl))}-[Aib]QGTFTSDYSKYLDEKRQKEFVNWLLAQKC (bridge 15-19) [Triple agonist of SEQ ID NO: 93] | 0.3% | 5.7% | 0.7%
6 | H[Aib]QGTFTSDVSKYLDGQAAQEFVAWLLKGC [Triple agonist of SEQ ID NO: 8] | 0.1% | 14.2% | < 0.1%
7 | H[Aib]EGTFTSDYSIAMDEIHQKDFVDWLLAEKC (bridge 16-20) [Triple agonist of SEQ ID NO: 80] | 0% | 8.1% | 0.1%
8 | Y[Aib]QGTFTSDYSKYLDEKAAKEFVQWLLDHHPSSGQPPPSC (bridge 16-20) [Triple agonist of SEQ ID NO: 75] | 8.5% | 35.1% | 18%
9 | Y[Aib]QGTFTSDYSKYLDEKRAKEFVQWLLCHHPSSGQPPPS (bridge 16-20) [Triple agonist of SEQ ID NO: 95] | 0.4% | 2.1% | < 0.1%
10 | H[Aib]EGTFTSDYSIAMDEIHQKDFVNWLLAQKC (bridge 16-20) [Triple agonist of SEQ ID NO: 79] | 4.9% | 41.5% | 1.4%
11 | Y[Aib]QGTFTSDYSKYLDEKRAKDFVQWLLDHHPSSGQPPPSC (bridge 16-20) [Triple agonist of SEQ ID NO: 76] | 47.6% | 10.3% | 11.7%
12 | {Acetyl(2-(4-imidazolyl))}-[Aib]QGTFTSDYSKCLDEKRAKEFVQWLLDHHPSSGQPPPS (bridge 15-19) [Triple agonist of SEQ ID NO: 74] | 0.9% | 12.9% | 1%
13 | Y[Aib]QGTFTSDYSKYLDEKRAKEFVQWLLDHCPSSGQPPPS (bridge 16-20) [Triple agonist of SEQ ID NO: 96] | 195% | 34.4% | 5.2%
14 | Y[Aib]QGTFTSDYSKYLDEKAAKDFVQWLLDHHPSSGQPPPSC (bridge 16-20) [Triple agonist of SEQ ID NO: 77] | 12.2% | 38.7% | 35.5%
15 | Y[Aib]QGTFTSDCSKYLDERAAKDFVQWLLDHHPSSGQPPPS (bridge 16-20) [Triple agonist of SEQ ID NO: 72] | 1% | 11.5% | 1.6%
16 | H[Aib]QGTFTSDYSKYLDEKRQKEFVQWLLDTKC (bridge 16-20) [Triple agonist of SEQ ID NO: 78] | 14% | 51% | 0.12%
17 | {Acetyl(2-(4-imidazolyl))}-[Aib]QGTFTSDYSIAMDEIHQKDFVNWLLAQC (bridge 15-19) [Triple agonist of SEQ ID NO: 85] | < 0.1% | 4.3% | 0.3%
18 | {Acetyl(2-(4-imidazolyl))}-[Aib]QGTFTSDYSIAMDEIHQKDFVNWLLNTC (bridge 15-19) [Triple agonist of SEQ ID NO: 87] | < 0.1% | 0.9% | < 0.1%
19 | H[Aib]QGTFTSDVSKYLDGQAAQEFVAWLLAGGGPSSGAPPPSC [Triple agonist of SEQ ID NO: 10] | < 0.1% | 46% | < 0.1%
20 | {Acetyl(2-(4-imidazolyl))}-[Aib]QGTFTSDYSKYLDEKRQKEFVQWLLNTKC (bridge 15-19) [Triple agonist of SEQ ID NO: 88] | 0.3% | 9.6% | < 0.1%
21 | {Acetyl(2-(4-imidazolyl))}-[Aib]QGTFTSDYSKYLDEKRQKEFVQWLLDTC (bridge 15-19) [Triple agonist of SEQ ID NO: 82] | 1.1% | 9.5% | < 0.1%
22 | H[Aib]QGTFTSDVSKYLDGQAAQEFVAWLLAGC [Triple agonist of SEQ ID NO: 9] | 0.13% | 32.1% | < 0.1%
23 | {Acetyl(2-(4-imidazolyl))}-[Aib]QGTFTSDYSIAMDEIHQKDFVNWLLNTKC (bridge 15-19) [Triple agonist of SEQ ID NO: 94] | < 0.1% | 0.5% | < 0.1%
24 | {Acetyl(2-(4-imidazolyl))}-[Aib]QGTFTSDYSKYLDECRAKEFVQWLLDHHPSSGQPPPS (bridge 15-19) [Triple agonist of SEQ ID NO: 73] | 5.4% | 22.6% | 3%
25 | {Acetyl(2-(4-imidazolyl))}-[Aib]QGTFTSDYSKYLDEKRQKEFVNWLLAQC (bridge 15-19) [Triple agonist of SEQ ID NO: 86] | 0.4% | 28.4% | 0.2%
26 | {Acetyl(2-(4-imidazolyl))}-[Aib]EGTFTSDYSIAMDEIHQKDFVDWLLAEC (bridge 15-19) [Triple agonist of SEQ ID NO: 84] | < 0.1% | 4.2% | < 0.1%
27 | {Acetyl(2-(4-imidazolyl))}-[Aib]QGTFTSDYSKYLDEKRQKEFVQWLLNTC (bridge 15-19) [Triple agonist of SEQ ID NO: 81] | 0.3% | 7.8% | < 0.1%
28 | {Acetyl(2-(4-imidazolyl))}-[Aib]EGTFTSDYSIAMDEIHQKDFVDWLLAEKC (bridge 15-19) [Triple agonist of SEQ ID NO: 91] | 16.8% | 31.9% | 0.3%
